Values of other authors in patent US20180221339A1, “COMPOSITIONS AND METHODS FOR TREATING AND DIAGNOSING OCULAR DISORDERS” (TRANSLATUM MEDICUS, INC., priority 2015, published 2018).

Biological target: T1, complement factor D (CFD) (Homo sapiens, UniProt P00746)
T1 construct: host or cells: patients (endogenous protein, in vivo)
Settings: phase II study, 18 month period; most robust in patients with complement factor H and I polymorphisms

T1 sequence (P00746 26-253): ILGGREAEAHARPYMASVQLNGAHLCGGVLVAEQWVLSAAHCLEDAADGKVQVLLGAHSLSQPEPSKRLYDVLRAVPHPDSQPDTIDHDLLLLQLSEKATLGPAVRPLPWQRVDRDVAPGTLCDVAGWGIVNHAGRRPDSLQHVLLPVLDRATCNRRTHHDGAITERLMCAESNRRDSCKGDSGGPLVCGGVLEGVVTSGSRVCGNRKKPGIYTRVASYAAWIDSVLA

Lampilizumab: complement factor D (CFD) inhibitor; anti-factor D antibody (Genentech)
growth (expansion) of geographic atrophy: can slow the growth, i.e. expansion, of geographic atrophy
